Source: patent US20130252282A1
Each block holds one substance with its values, some of them ahead of it.

Legend:
[1] = target: Cdc42 (UniProt P60766); assay: cell-based or functional assay
[2] = target: Dronpa145N (Pectimidae genus coral); assay: inferred from native PAGE of 100 µM protein after cyan (about 500 nm) illumination; self-association, off-photoswitched state

Sequence of UniProt P60766 (P60766 1-188 limits assumed): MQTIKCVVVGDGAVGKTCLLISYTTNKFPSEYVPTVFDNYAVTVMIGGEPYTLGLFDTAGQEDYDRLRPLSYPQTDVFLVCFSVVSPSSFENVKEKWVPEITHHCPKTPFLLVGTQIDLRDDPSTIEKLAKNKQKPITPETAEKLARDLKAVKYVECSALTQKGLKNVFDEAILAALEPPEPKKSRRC

basal filopodia or lamellipodia in low expressers [1]: 8% | cells forming abundant filopodia within 30 minutes after illumination [1]: 90% | cells forming filopodia, not exposed to light [1]: 25%
Substance: K-I-N-CAAX (Dronpa145K-intersectin DH domain-Dronpa145N-CAAX) (from UniProt Q15811 1234-1428) (enzyme)

Kd [2]: > 100 µM
Substance: Dronpa145N

cells forming abundant filopodia within 30 minutes after 490/20-nm light for 30 seconds [1]: 78% | cells forming filopodia in the same time interval without illumination [1]: 10%
Substance: N-I-N-CAAX (Dronpa145N-intersectin DH domain-Dronpa145N-CAAX) (from UniProt Q15811 1234-1428) (enzyme)

basal filopodia or lamellipodia in low expressers [1]: 0%
Substance: N-I-N-CAAX (Dronpa145N-intersectin DH domain-Dronpa145N-CAAX) (from UniProt Q15811 1234-1428)
